From patent US20250170267A1, “ANTIBODY-DRUG CONJUGATE PRECURSOR AND INTERMEDIATE FOR SYNTHESIS THEREOF” (UBE Corporation, priority 2022, published 2025)
Numbered stars: 1 amine (or outer) side, 2 acyl side, 3 side chain; on linkers, the order of the positions; unused ones are H or OH. Square brackets hold non-standard residues; d marks the D form. Peptide text beside a SMILES is read from it. * marks the point of attachment. Dolaproine = CO[C@@H]([C@@H]1CCCN1)[C@@H](C)C(=O)O; Propanoyl(3-maleimido) = O=C1C=CC(=O)N1CCC(=O)*; Dil = CC[C@H](C)[C@H](NC)[C@@H](CC(=O)O)OC; PABC = O=C(OCc1ccc(N[*:1])cc1)[*:2]; X1 = C[C@@H](N*)[C@@H](O)c1ccccc1; hSer(lactone) = O=C1OCC[C@@H]1N*; Cit = NC(=O)NCCC[C@H](N)C(=O)O; PEG4 = NCCOCCOCCOCCOCCC(=O)O; NMeV = CN[C@H](C(=O)O)C(C)C

How the values were obtained:
[1] = Retention time in HPLC (index of hydrophilicity); format: physicochemical; conditions: BEH C18, 0.1% formic acid/acetonitrile gradient, 40° C.
Experimental: As an index of hydrophilicity of the Examples, the retention time (RT) in HPLC analysis was measured, and compared.
Device: LCMS2020 system Shimadzu Corporation
Column: Acquity UPLC (registered trademark) BEH C18 (2.1×50 mm, 1.7 μm)_Waters
Eluent: Solution A: 0.1% aqueous solution of formic acid, Solution B: 0.1% solution of formic acid in acetonitrile

[2] = Pharmacokinetic test (serum trastuzumab residual rate); format: in vivo; conditions: female BALB/c mouse, intravenous; 3 days vs 5 minutes after administration
Source text: After a prescribed time period, the blood was collected from the jugular vein or abdominal vein, and centrifuged to prepare a serum. The resulting serum was cryopreserved until the measurement.

[3] = molecular target: T1, human liver Cathepsin B (Homo sapiens, UniProt P07858); test: Metabolism test using human liver Cathepsin B; format: in vitro ADME; conditions: 37° C., 24 hours, released drug, LC-MS/MS
T1 construct: human liver Cathepsin B (manufactured by Sigma-Aldrich Co. LLC, Cat No. C8571 25 μg/vial); purchased Sigma-Aldrich Co. LLC C8571; host or cells: human liver
Experimental: To human liver Cathepsin B (manufactured by Sigma-Aldrich Co. LLC, Cat No. C8571 25 μg/vial)(corresponding to 400 Unit/mL)(5 μL), X10 Catabolic Buffer (manufactured by SEKISUI-Xenotech, LLC., K5200)(10 μL), 2.5 mM Bovine Serum Albumin (manufactured by FUJIFILM Wako Pure Chemical Corporation, Cat No. 012-15093)(5 μL), and distilled water (manufactured by FUJIFILM Wako Pure Chemical Corporation, for HPLC)(55 μL) was added 1.2 μM test compound (antibody-drug conjugate prepared in ADC Production examples)(25 μL) dissolved in PBS to prepare a reaction solution. After the reaction solution was incubated at 37° C. for 24 hours, “an antitumor drug molecule or an analog thereof, or a derivative thereof” released from the antibody-drug conjugate into the reaction solution was quantified by LC-MS/MS (high performance liquid chromatography/mass spectrometer system) under the following conditions. LC-MS/MS analysis conditions
(§1) LC: LC20 or LC30 HPLC system manufactured by Shimadzu Corporation
(§2) Column: Phenomenex Kinetex C18 (50×2.1 mm, 2.6 μm)
(§3) Column temperature: 40° C.
(§4) Mobile phase A: 0.1% aqueous solution of formic acid, Mobile phase B: 0.1% solution of formic acid in a mixture of 50% acetonitrile/methanol
(§5) Mode: Positive or Negative
(§6) The release rate (%) of drug was calculated by the following equation.

[4] = test system: human liver lysosome; test: Metabolism test using human liver lysosomal fraction; format: in vitro ADME; conditions: 37° C., 24 hours, released drug, LC-MS/MS
Experimental: To a reaction composition solution (X10 Catabolic Buffer (manufactured by SEKISUI-Xenotech, LLC., K5200))(60 μL) in which human liver lysosome (manufactured by SEKISUI-Xenotech, LLC., Cat No. H610.L 2.5 mg/mL)(corresponding to 0.125 mg of protein) was suspended and distilled water (manufactured by FUJIFILM Wako Pure Chemical Corporation, for HPLC)(10 μL) was added 1.2 μM test compound (antibody-drug conjugate produced in ADC Production examples)(25 μL) dissolved in PBS to prepare a reaction solution. After the reaction solution was incubated at 37° C. for 24 hours, “an antitumor drug molecule or an analog thereof, or a derivative thereof” released from the antibody-drug conjugate into the reaction solution was quantified by LC-MS/MS (high performance liquid chromatography/mass spectrometer system) under the following conditions. LC-MS/MS analysis conditions
as §1, §2, §3, §4, §5, §6

Compound | Retention time in HPLC measurement ([1]; Table 6 (eribulin precursors)) [min] | Serum trastuzumab residual rate after 3 days from administration (%) [2] [%] | Release rate (%) of drug from ADC [3] [%] | Release rate (%) of drug from ADC [4] [%] | Retention time in HPLC measurement ([1]; Table 5 (MMAE-type precursors)) [min]
C=C1C[C@@H]2CC[C@@]34C[C@H]5O[C@H]6[C@@H](O3)[C@H]3O[C@H](CC[C@@H]3O[C@H]6[C@H]5O4)CC(=O)C[C@@H]3[C@@H](OC)[C@@H](C[C@H](O)CNC(=O)OCc4ccc(NC(=O)[C@H](CCCNC(N)=O)NC(=O)[C@@H](NC(=O)[C@H](CC(=O)N[C@H]5CCOC5=O)NC(=O)[C@H](CCCCN(C)C)NC(=O)CCOCCOCCOCCOCCNC(=O)[C@H](CNC(=O)CCP(=O)(O)O)N5C(=O)C=CC5=O)C(C)C)cc4)O[C@H]3C[C@H]3O[C@@H](CC[C@@H]1O2)C[C@@H](C)C3=C [Example 18] | 0.96 | 73 | 64 | 75 | –
CC[C@H](C)[C@@H]([C@@H](CC(=O)N1CCC[C@H]1[C@H](OC)[C@@H](C)C(=O)N[C@H](C)[C@@H](O)c1ccccc1)OC)N(C)C(=O)[C@@H](NC(=O)[C@H](C(C)C)N(C)C(=O)OCc1ccc(NC(=O)[C@H](CCCNC(N)=O)NC(=O)[C@@H](NC(=O)[C@H](CC(=O)N[C@H]2CCOC2=O)NC(=O)CCOCCOCCOCCOCCNC(=O)CCN2C(=O)C=CC2=O)C(C)C)cc1)C(C)C [Example 1] ({Propanoyl(3-maleimido)-PEG4}-D(hSer(lactone))V[Cit][PABC][NMeV]V[Dil][Dolaproine]-X1) | – | 35 | 71 | 68 | 1.12
